Assay results as given in paper PMC7218058.
One block for each substance: values may come before it.

Legend:
[1] = target: human FcγRIIIa 158Phe, biotinylated (UniProt P08637); test: SPR; conditions: read off a plot
[2] = target: human FcγRIIIa 158Val, biotinylated; test: SPR; conditions: read off a plot
[3] = target: human FcγRIIIa 158Phe, biotinylated (UniProt P08637); test: cSPR (cellular SPR, opsonized RBCs); conditions: receptor density of 30 nM and opsonization concentration of 0.625 μg/ml; parent: est. 250; read off a plot
anti-kappa nanobody = test: cSPR (cellular SPR, opsonized RBCs); conditions: density of 1 nM and opsonization concentration of 0.625 μg/ml; parent: est. 610; read off a plot
[4] = target: human FcγRIIa 131His, biotinylated (UniProt P12318); test: cSPR (cellular SPR, opsonized RBCs); conditions: receptor density of 30 nM and opsonization concentration of 2.5 μg/ml; parent: est. 310; read off a plot
[5] = target: human FcγRIIIa 158Val, biotinylated; test: cSPR (cellular SPR, opsonized RBCs); conditions: receptor density of 10 nM and opsonization concentration of 1.25 μg/ml; parent: est. 200; read off a plot
[6] = target: human FcγRIIa 131Arg, biotinylated; test: cSPR (cellular SPR, opsonized RBCs); conditions: receptor density of 30 nM and opsonization concentration of 0.625 μg/ml; parent: est. 210; read off a plot
[7] = target: human FcγRIIIa 158Phe, biotinylated (UniProt P08637); test: SPR; IBIS MX96; biotinylated human FcγR spotted on a SensEye G-Streptavidin sensor at 1, 3, 10 and 30 nM; 2-fold dilution series of IgG (0.49 to 1000 nM) flowed over; Kd by equilibrium fitting, interpolated to Rmax 500
[8] = target: human FcγRIIIa 158Val, biotinylated (human); test: as above

Sequence of human FcγRIIIa 158Phe, biotinylated (P08637 17-208): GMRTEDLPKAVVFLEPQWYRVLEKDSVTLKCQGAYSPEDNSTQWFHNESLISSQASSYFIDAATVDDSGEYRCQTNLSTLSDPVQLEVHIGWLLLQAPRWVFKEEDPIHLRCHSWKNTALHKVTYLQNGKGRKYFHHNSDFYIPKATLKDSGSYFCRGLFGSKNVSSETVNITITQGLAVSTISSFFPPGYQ
Sequence of human FcγRIIa 131His, biotinylated (P12318 34-217): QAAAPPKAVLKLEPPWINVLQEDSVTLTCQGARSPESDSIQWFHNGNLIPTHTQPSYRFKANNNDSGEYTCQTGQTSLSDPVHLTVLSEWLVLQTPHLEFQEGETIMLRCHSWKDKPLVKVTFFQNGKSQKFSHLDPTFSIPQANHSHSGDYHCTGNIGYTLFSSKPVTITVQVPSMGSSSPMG

Kd ([1]; parent: est. 1.5e-6): 4400 nM
Kd ([2]; parent: est. 2.7e-7): 470 nM
Substance: anti-RhD IgG1 allotype IGHG1*03 R292W

Kd ([1]; parent: est. 8.1e-7): 1900 nM
Kd ([2]; parent: est. 1.7e-7): 340 nM
Substance: anti-RhD IgG3 allotype IGHG3*01 R292W

Kd ([2]; parent: est. 2.5e-7): 210 nM
other: avidity (AUC) [3]: 50
other: avidity (AUC) (anti-kappa nanobody): 640
other: avidity (AUC) [4]: 45
other: avidity (AUC) [5]: 55
other: avidity (AUC) [6]: 11
Substance: anti-RhD IgG3 allotype IGHG3*12 F296Y; P291L

Kd ([1]; parent: est. 9.2e-7): 860 nM
Kd ([2]; parent: est. 2.1e-7): 220 nM
Substance: anti-RhD IgG3 allotype IGHG3*17 R292A

Kd ([1]; parent: est. 9.2e-7): 2700 nM
Kd ([2]; parent: est. 2.1e-7): 580 nM
Substance: anti-RhD IgG3 allotype IGHG3*17 R292E

Kd ([1]; parent: est. 9.2e-7): 810 nM
Kd ([2]; parent: est. 2.1e-7): 200 nM
Substance: anti-RhD IgG3 allotype IGHG3*17 R292H

Kd ([1]; parent: est. 9.2e-7): 860 nM
Kd ([2]; parent: est. 2.1e-7): 210 nM
Substance: anti-RhD IgG3 allotype IGHG3*17 R292L

Kd ([1]; parent: est. 9.2e-7): 2800 nM
Kd ([2]; parent: est. 2.1e-7): 540 nM
Substance: anti-RhD IgG3 allotype IGHG3*17 R292W

fold reduction of affinity against other IgG3 allotypes [7]: 3 fold
fold reduction of affinity against other IgG3 allotypes [8]: 3 fold
Substance: anti-RhD IgG3 allotype IGHG3*18 (antibody)

Kd ([1]; parent: est. 2.6e-6): 880 nM
Kd ([2]; parent: est. 5.4e-7): 210 nM
Substance: anti-RhD IgG3 allotype IGHG3*18 W292R

fold reduction of affinity against other IgG3 allotypes [7]: 3 fold
fold reduction of affinity against other IgG3 allotypes [8]: 3 fold
Substance: anti-RhD IgG3 allotype IGHG3*19 (antibody)
